Laboratory results: patent US20170030891A1, “BLOOD CONDITION ANALYSIS DEVICE, BLOOD CONDITION ANALYSIS SYSTEM, BLOOD CONDITION ANALYSIS METHOD, AND PROGRAM” (SONY CORPORATION, priority 2014, published 2017)

Test system: fibrinolysis system of the blood
Assay: complex permittivity at 10 MHz of blood samples with fibrinolysis system promotor (tPA) and inhibitor (aprotinin)
Details: blood sample of tPA=8 and aprotinin=0, FIG. 9
Procedure: In addition, for example, in the case where the fibrinolysis system is evaluated, examples of coagulation factors to be evaluated include plasminogen and plasmin. In that case, as a drug to be added to the blood sample, an activator or inhibitor of plasminogen or plasmin is usable. FIG. 9 is a diagram showing time-dependent changes in the real part (∈′) of the complex permittivity at 10 MHz of blood samples having different fibrinolysis system promotor (tPA) and fibrinolysis system inhibitor (aprotinin) concentrations.
For the evaluation of the fibrinolysis-system blood, for example, a value obtained by dividing the amplitude after 30 minutes from the time B shown in FIGS. 2A-2B by the amplitude at the time B (LI30: the source of clot firmness after a predetermined period of time from the maximum firmness accompanying fibrinolysis) can be used as an evaluation parameter.

B1: tPA: fibrinolysis system promotor (protein, UniProt P00750 36-562, looked up)
Tissue-type plasminogen …: SYQVICRDEKTQMIYQQHQSWLRPVLRSNRVEYCWCNSGRAQCHSVPVKSCSEPRCFNGGTCQQALYFSDFVCQCPEGFAGKCCEIDTRATCYEDQGISYRGTWSTAESGAECTNWNSSALAQKPYSGRRPDAIRLGLGNHNYCRNPDRDSKPWCYVFKAGKYSSEFCSTPACSEGNSDCYFGNGSAYRGTHSLTESGASCLPWNSMILIGKVYTAQNPSAQALGLGKHNYCRNPDGDAKPWCHVLKNRRLTWEYCDVPSCSTCGLRQYSQPQFRIKGGLFADIASHPWQAAIFAKHRRSPGERFLCGGILISSCWILSAAHCFQERFPPHHLTVILGRTYRVVPGEEEQKFEVEKYIVHKEFDDDTYDNDIALLQLKSDSSRCAQESSVVRTVCLPPADLQLPDWTECELSGYGKHEALSPFYSERLKEAHVRLYPSSRCTSQHLLNRTVTDNMLCAGDTRSGGPQANLHDACQGDSGGPLVCLNDGRMTLVGIISWGLGCGQKDVPGVYTKVTNYLDWIRDNMRP
characteristics of time-dependent change of ∈′ at 10 MHz: exhibits similar characteristics to the blood of a patient with the fibrinolysis system promoted
